The results in this text go back to paper PMC6149950, “Designability of Aromatic Interaction Networks at E. coli Bacterioferritin B-Type Channels” (Molecules : A Journal of Synthetic Chemistry and Natural …, 2017).

This series deals with the molecule itself. Put plainly: SEC; Superdex 200 10/300 GL, 50 mM NaH2PO4, 150 mM NaCl, pH 7.0, 4 °C, 0.5 mL/min; column calibrated with six standard proteins; self-assembly of dimers into the 24-mer cage.

B1: bacterioferritin from E. coli (BFR) double mutant D132W/N34W (natural protein)
chain: not shown
notes: bacterioferritin (BFR), E. coli, with D132W and N34W; made by site-directed mutagenesis of wild-type BFR in pET32 Ek/LIC
B1: the stoichiometry N – broadly, the number of molecules, sites or subunits per partner or assembly – was 2.

B2: bacterioferritin from E. coli (BFR) mutant N34W (natural protein)
chain: not shown
notes: bacterioferritin (BFR), E. coli, with N34W; made by site-directed mutagenesis of wild-type BFR in pET32 Ek/LIC
For the protein B2, the “stoichiometry N” value was found to be 2.
